Source: patent US20230213527A1 (QUANTUM SI, published 2023)
Square brackets hold non-standard residues; d marks the D form. Primed or numbered codes have the meaning given here. Ends that are not written are not given here. Lys(N3) = [N-]=[N+]=NCCCC[C@H](N)C(=O)O; Met(O) = CS(=O)CC[C@H](N)C(=O)O; FITC′ = not defined here

Assays:
[1] = target: T1, … (SEQ ID NO: 800), state with N-terminal leucine (LVFAYPDDD) (not fully specified (C-terminus); also: C-terminal azidolysine conjugated to DNA-streptavidin linker); assay: single-molecule on-chip dynamic sequencing; recognition of N-terminal leucine
T1 construct: residue range inferred from the recognized N-terminal residue
T1 peptide: LVFAYPDDD
Procedure: To illustrate how the kinetic parameters acquired from sequencing are sensitive to changes in sequence composition, sequencing was performed with a set of three peptides […] (SEQ ID NO: 798), […] (SEQ ID NO: 799), and […] (SEQ ID NO: 800)—that differ only at a single position, located immediately downstream from the PS961 N-terminal target leucine.
The semiconductor chip was placed in the sequencing device and a chip check was performed to test electronic circuit function and to optimize laser coupling alignment. The chip was then removed from the device socket and the chip was washed twice with 50 μL of 70% isopropanol, followed by four washes with 30 μL of wash buffer (50 mM MOPS pH 8.0, 60 mM potassium acetate, 50 mM glucose, 20 mM magnesium acetate, and surfactant mix) through a flow cell attached to the chip. A second chip check was then performed. The laser was then blocked via an integrated software-controlled shutter, peptide complex was added to a final concentration of 1-10 nM and mixed thoroughly, and the chip was incubated for 15 min. The chip was then washed six times with wash buffer, followed by addition of an imaging solution (wash buffer with 5 mM Trolox and an oxygen scavenging system). The laser was unblocked and the occupancy percentage (target 10-30%, Poisson distributed) was recorded by acquiring a photobleaching signal from a fluorophore attached to the peptide complex during 5 min of laser illumination. For NAA recognition-only assays, after peptide loading, labeled recognizer was added to a final concentration of 50 nM PS610, 100 nM PS691, or 250 nM PS961 (as indicated according to the experiment), and data was recorded for 10 hours.

[2] = target: T2, labeled peptide with N-terminal methionine (XAKLDEESILKQK-FITC, SEQ ID NO: 833, X = M); assay: fluorescence polarization titration, FITC-labeled peptide (FIG. 9D)
T2 peptide: MAKLDEESILKQK-{FITC′}
Procedure: As an example, methionine oxidation was examined. The thioether moiety of the methionine side chain is susceptible to oxidation during peptide synthesis and sequencing. […] It was determined computationally that methionine sulfoxide is highly unfavorable in the PS961 NAA binding pocket and that non-polar residues are preferred at P2 (FIG. 9E). The synthetic peptide […] (SEQ ID NO: 801) was sequenced, and two populations of traces with distinct kinetic signatures were observed—a first population containing leucine recognition with median PD of 0.86 s, and a second population with median PD of 0.35 s (FIG. 4C).
Binding affinity was measured by polarization using a labeled peptide. The polarization response and total intensity measurements were carried out at 20° C. on a microplate fluorometer with 480 nm excitation and 530 nm emission. The interaction of recognizer with labeled peptide containing a target N-terminal residue (XAKLDEESILKQK-FITC (SEQ ID NO: 833)) was performed in PBS buffer at pH 7.4 and readings were collected after 30 min. Multiple analyses were performed at increasing recognizer concentration at a fixed concentration of a target peptide to obtain a titration curve. An equilibrium polarization response at each concentration was plotted and fit to calculate the KD.

[3] = target: T3, RLMoFAYPDDD (SEQ ID NO: 858), state with N-terminal methionine sulfoxide (MoFAYPDDD) (also: C-terminal azidolysine conjugated to DNA-streptavidin linker); assay: single-molecule on-chip dynamic sequencing
T3 construct: residue range inferred
T3 peptide: [Met(O)]FAYPDDD[Lys(N3)]

[4] = target: T4, … (SEQ ID NO: 801), state with N-terminal methionine (MFAYPDDD) (not fully specified (C-terminus); also: C-terminal azidolysine conjugated to DNA-streptavidin linker); assay: single-molecule on-chip dynamic sequencing
T4 construct: residue range inferred from the recognized N-terminal residue
T4 peptide: MFAYPDDD

B1: PS961 (designed binder)
chain: MPTAASATESAIEDTPAPARPEVDGRTKPKRQPRYHVVLWDDDDHTYQYVVVMLRSLFGHPPSRGYRMAKEMDTQGRVIVLTTTREHAELKRDQIHAFGRDRLLARSKGSMKASIEAEE
notes: also called PS961 (L, I, V); PS961 (LIV)
[1]
  median pulse duration (PD): 4.21 s
[2]
  Kd: 947 nM
[3]
  binding result: no binding (tested: 250 nM PS961)
[4]
  binding result: binds
